B1: LINE1-full (parent)
chain: UACGUAGGUGGUUUUCCCCUGAUAGUGCUAAGGGGGCCUGGAAGUUUGGACUGGGCAGAGCUCAACACAGCGUGGCAAAGUGGCUGUGGCUAGACUGCCUCUCUGGAUUCCUCGUCACUCAGCAGGGCAUCUCUGAGAGAAAUGCC

Variants of: B1
Experiment: self-cleavage, relative activity (ratio to wild type); higher = more cleavage; in vitro, sequencing; the parent is a self-cleaving ribozyme

First: UACGUAGGUGGUUUUCCCCUGAUAGUGCUAAGGGGGCCUGGAAGUUUGGACUGGGCAGAGCUCGACACAGCGUGGCAAAGUGGCUGUGGCUAGACUGCCUCUCUGGAUUCCUCGUCACUCAGCAGGGCAUCUCUGAAAGAAAUGCC [A64G G137A]
Second: UACGUAGGUGGUUUUCCCCUGAUAGUGCUAAGGGGGCCUGGAAGUUUGGACUGGGCAGAGCUCGACACAGCGUGGCAAAAUGGCUGUGGCUAGACUGCCUCUCUGGAUUCCUCGUCACUCAGCAGGGCAUCUCUGAGAGAAAUGCC [A64G G80A]
The self-cleavage of the first is lower: 0.21 for the first, 0.39 for the second.

Going from UACGUAGGUGGUUUUCCCCUGAUAGUGCUAAGGGGGCCUGGAAGUUUGGACUGGGCAGAGCUCGACACAGCGUGGCAAAGUGGCUGUGGCUAAACUGCCUCUCUGGAUUCCUCGUCACUCAGCAGGGCAUCUCUGAGAGAAAUGCC [A64G G93A] to UACGUAGGUGGUUUUCCCCUGAUAGUGCUAAGGGGGCCUGGAAGUUUGGACUGGGCAGAGCUCGACACAGCGUGGCAAAGAGGCUGUGGCUAGACUGCCUCUCUGGAUUCCUCGUCACUCAGCAGGGCAUCUCUGAGAGAAAUGCC [A64G U81A], the self-cleavage rises from 0.04 to 0.34.

Compared with UACGUAGGUGGUUUUCCCCUGAUAGUGCUAAGGGGGCCUGGAAGUUUGGACUGGGCAGAGCUCGACACAGCGUGGCAAAGUGGCUGUGGCUAGACUGCCUCUCUGGAUUCCUCGUCACUCAGCAGGGCAUCUUUGAGAGAAAUGCC [A64G C133U], UACGUAGGUGGUUUUCCCCUGAUAGUGCUAAGGGGGCCUGGAAGUUUGGACUGGGCAGAGCUCGACACAGCGUGGCAAAGUGGCUGUGGCUAGACUGCCUCUCUGGAUUCCUCUUCACUCAGCAGGGCAUCUCUGAGAGAAAUGCC [A64G G114U] is higher in self-cleavage: 0.06 for the first, 0.24 for the second.

Compared with UACGUAGGUGGUUUUCCCCUGAUAGUGCUAAGGGGGCCUGGAAGUUUGGACUGGGCAGAGCUCGACACAGCGUGGCAAAGUGGCUGAGGCUAGACUGCCUCUCUGGAUUCCUCGUCACUCAGCAGGGCAUCUCUGAGAGAAAUGCC [A64G U87A], UACGUAGGUGGUUUUCCCCUGAUAGUGCUAAGGGGGCCUGGAAGUUUGGACUGGGCAGAGCUCGACACAGCGUGGCAAAGUGGCUGGGGCUAGACUGCCUCUCUGGAUUCCUCGUCACUCAGCAGGGCAUCUCUGAGAGAAAUGCC [A64G U87G] is lower in self-cleavage: 0.07 for the first, 0 for the second.

First: UACGUAGGUGGUUUUCCCCUGAUAGUGCUAAGGGGGCCUGGAAGUUUGGACUGGGCAGAGCUCGACACAGCAUGGCAAAGUGGCUGUGGCUAGACUGCCUCUCUGGAUUCCUCGUCACUCAGCAGGGCAUCUCUGAGAGAAAUGCC [A64G G72A]
Second: UACGUAGGUGGUUUUCCCCUGAUAGUGCUAAGGGGGCCUGGAAGUUUGGACUGGGCAGAGCUCGACACAGCUUGGCAAAGUGGCUGUGGCUAGACUGCCUCUCUGGAUUCCUCGUCACUCAGCAGGGCAUCUCUGAGAGAAAUGCC [A64G G72U]
The self-cleavage of the first is higher: 0.19 for the first, 0.12 for the second.

Compared with UACGUAGGUGGUUUUCCCCUGAUAGUGCUAAGGGGGCCUGGAAGUUUGGACUGGGCAGAGCUCGACACAGCGUGGCAAAGUGGCUGUGGCUAGACUGCCUCUCUUGAUUCCUCGUCACUCAGCAGGGCAUCUCUGAGAGAAAUGCC [A64G G105U], UACGUAGGUGGUUUUCCCCUGAUAGUGCUAAGGGGGCCUGGAAGUUUGGACUGGGCAGAGCUCGACACAGCGUGGCAAAGUGGCUGUGGCUAGACUGCCUCUCUGGAUUCCUCGUCACUCAGCAGGGCAUUUCUGAGAGAAAUGCC [A64G C131U] is higher in self-cleavage: 0.15 for the first, 0.33 for the second.

Compared with UACGUAGGUGGUUUUCCCCUGAUAGUGCUAAGGGGGCCUGGAAGUUUGGACUGGGCAGAGCUCGACACAGCGUGGCAAAGUGGCUGUCGCUAGACUGCCUCUCUGGAUUCCUCGUCACUCAGCAGGGCAUCUCUGAGAGAAAUGCC [A64G G88C], UACGUAGGUGGUUUUCCCCUGAUAGUGCUAAGGGGGCCUGGAAGUUUGGACUGGGCAGAGCUCGACACAGCGUGGCAAAGUGGCUGUGGCUAGACUGCCUCUCUGGAUUCCUCGUCACUCAGCAAGGCAUCUCUGAGAGAAAUGCC [A64G G125A] is higher in self-cleavage: 0.04 for the first, 0.31 for the second.

First: UACGUAGGUGGUUUUCCCCUGAUAGUGCUAAGGGGGCCUGGAAGUUUGGACUGGGCAGAGCUCGACACAGCGUGACAAAGUGGCUGUGGCUAGACUGCCUCUCUGGAUUCCUCGUCACUCAGCAGGGCAUCUCUGAGAGAAAUGCC [A64G G75A]
Second: UACGUAGGUGGUUUUCCCCUGAUAGUGCUAAGGGGGCCUGGAAGUUUGGACUGGGCAGAGCUCGACACAGCGUGGCAAAGUAGCUGUGGCUAGACUGCCUCUCUGGAUUCCUCGUCACUCAGCAGGGCAUCUCUGAGAGAAAUGCC [A64G G82A]
The self-cleavage of the first is lower: 0.17 for the first, 0.19 for the second.

Compared with UACGUAGGUGGUUUUCCCCUGAUAGUGCUAAGGGGGCCUGGAAGUUUGGACUGGGCAGAGCUCGACACAGCGGGGCAAAGUGGCUGUGGCUAGACUGCCUCUCUGGAUUCCUCGUCACUCAGCAGGGCAUCUCUGAGAGAAAUGCC [A64G U73G], UACGUAGGUGGUUUUCCCCUGAUAGUGCUAAGGGGGCCUGGAAGUUUGGACUGGGCAGAGCUCGACACAGCGUGGCAAAGUGGCUGUGGCCAGACUGCCUCUCUGGAUUCCUCGUCACUCAGCAGGGCAUCUCUGAGAGAAAUGCC [A64G U91C] is lower in self-cleavage: 0.15 for the first, 0.07 for the second.

Compared with UACGUAGGUGGUUUUCCCCUGAUAGUGCUAAGGGGGCCUGGAAGUUUGGACUGGGCAGAGCUCGACACAGCGUAGCAAAGUGGCUGUGGCUAGACUGCCUCUCUGGAUUCCUCGUCACUCAGCAGGGCAUCUCUGAGAGAAAUGCC [A64G G74A], UACGUAGGUGGUUUUCCCCUGAUAGUGCUAAGGGGGCCUGGAAGUUUGGACUGGGCAGAGCUCGACACAGCGUGGCAAAGUGGCUGUGUCUAGACUGCCUCUCUGGAUUCCUCGUCACUCAGCAGGGCAUCUCUGAGAGAAAUGCC [A64G G89U] is lower in self-cleavage: 0.12 for the first, 0 for the second.

— the RNAGym collection of RNA variant scans (doi:10.7554/elife.90254)
